Reference: article PMC4188415

How the values were obtained:
Experiment in all cases: ITC
[1] = biological target: KPNA1 in a 1:1 complex with eVP24 (human | Ebola virus) (UniProt P52294)
[2] = biological target: KPNA5 in a 1:1 complex with eVP24 (competition ITC) (human | Ebola virus) (UniProt O15131)
[3] = biological target: ΔIBB-KPNA5 (66-509) (human)

Chain of UniProt O15131 (O15131 whole entry, chain 1 of 2): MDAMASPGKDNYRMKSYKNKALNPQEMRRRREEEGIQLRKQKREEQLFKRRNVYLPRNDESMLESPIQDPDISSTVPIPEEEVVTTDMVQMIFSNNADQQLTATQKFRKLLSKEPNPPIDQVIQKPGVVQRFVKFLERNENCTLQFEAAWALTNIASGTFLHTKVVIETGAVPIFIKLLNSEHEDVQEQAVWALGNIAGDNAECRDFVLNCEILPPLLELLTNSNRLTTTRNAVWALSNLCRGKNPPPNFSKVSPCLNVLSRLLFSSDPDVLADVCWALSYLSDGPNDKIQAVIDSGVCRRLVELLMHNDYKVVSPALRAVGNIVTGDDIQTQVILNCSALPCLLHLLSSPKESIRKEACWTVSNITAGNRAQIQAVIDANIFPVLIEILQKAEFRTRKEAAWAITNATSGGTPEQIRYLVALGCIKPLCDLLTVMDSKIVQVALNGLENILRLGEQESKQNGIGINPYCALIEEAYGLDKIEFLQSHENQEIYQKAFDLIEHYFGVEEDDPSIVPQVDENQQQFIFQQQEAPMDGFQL
Chain of UniProt O15131 (Q05322 whole entry, chain 2 of 2, further chain): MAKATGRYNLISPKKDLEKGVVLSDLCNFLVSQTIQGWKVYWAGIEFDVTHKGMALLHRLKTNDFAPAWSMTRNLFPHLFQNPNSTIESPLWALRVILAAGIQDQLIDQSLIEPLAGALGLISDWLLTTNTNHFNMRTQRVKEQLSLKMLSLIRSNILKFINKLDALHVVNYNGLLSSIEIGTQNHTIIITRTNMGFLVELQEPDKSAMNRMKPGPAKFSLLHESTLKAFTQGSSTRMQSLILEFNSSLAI
Chain of UniProt P52294 (P52294 whole entry, chain 1 of 2): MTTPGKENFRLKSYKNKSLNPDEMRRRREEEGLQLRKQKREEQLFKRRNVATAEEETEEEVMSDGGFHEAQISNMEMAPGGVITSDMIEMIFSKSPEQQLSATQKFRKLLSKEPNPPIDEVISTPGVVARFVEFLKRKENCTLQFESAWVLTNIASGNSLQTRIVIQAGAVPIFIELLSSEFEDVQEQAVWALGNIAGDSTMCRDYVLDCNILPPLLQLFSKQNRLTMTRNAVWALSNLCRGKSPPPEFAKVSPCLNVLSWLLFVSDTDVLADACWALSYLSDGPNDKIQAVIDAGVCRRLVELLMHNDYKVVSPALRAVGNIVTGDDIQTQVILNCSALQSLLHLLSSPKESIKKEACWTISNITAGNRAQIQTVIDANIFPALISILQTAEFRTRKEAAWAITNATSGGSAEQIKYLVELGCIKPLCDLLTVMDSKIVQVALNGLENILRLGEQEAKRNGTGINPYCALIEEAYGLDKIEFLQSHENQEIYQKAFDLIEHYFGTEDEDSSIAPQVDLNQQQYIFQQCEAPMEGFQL
Chain of UniProt P52294 (Q05322 whole entry, chain 2 of 2, further chain): as the sequence (Q05322 whole entry, chain 2 of 2, further chain) above

Row | Substance | fold difference in binding against KPNA1 without eVP24 [1] [fold] | fold difference in binding against KPNA5 without eVP24 [2] [fold] | Kd [3] [nM]
1 | nucleoplasmin peptide (bipartite cNLS) | 2 | 2 | 
2 | MBP-tagged eVP24 (residues 11-237) (from UniProt Q05322 11-237) (domain or fragment) |  |  | 1 to 10
